The record followed here is paper PMC9628817.

Broadly, the stoichiometry N is the number of molecules, sites or subunits per partner or assembly.

Test [1] has as its target CelA203, lichenase (β-1,3-1,4-glucanase) from Bacillus subtilis B110 (Bacillus subtilis B110). Kind of test: SEC; FPLC, Enrich SEC 650 10 × 300 column, 20 mM Tris-HCl pH 7.0, 0.5 ml/min; calibrated with HMW native protein markers (66-669); polymer and monomer peaks.
Test [2] shares this target. Kind of test: SDS-PAGE of unboiled sample, mass from a mobility (Rf) standard curve; purified CelA203, unboiled, 10% SDS-PAGE; tetramer band and weak monomer band; tetramer to monomers.

For the substance “CelA203, lichenase (β-1,3-1,4-glucanase) from Bacillus subtilis B110 (enzyme)”, the stoichiometry N in test [1] was 4; in test [2], 4.07.
